Results: the FLAb antibody collection (doi:10.1101/2023.12.08.570889)
Positions count from the first letter of the chain named. Each block holds one binder with its values, some of them ahead of it.

Target: FXI
Test: Kd (SPR)

B1: unnamed (protein)
chain 1: EVQLLESGGGLVQPGGSLRLSCAASGFTFSQYGMDWVRQAPGKGLEWVSGIGPSGGSTVYADSVKGRFTISRDNSKNTLYLQMNSLRAEDTAVYYCTRDGSAYYYAFDYWGQGTTVTVSS
chain 2: DIQMTQSPSSLSASVGDRVTITCQASQDISNYLNWYQQKPGKAPKLLIYDASNLETGVPSRFSGSGSGTDFTFTISSLQPEDIATYYCQQADSFPVTFGGGTKVEIK
- Kd: 248 nM

B2: unnamed (protein)
chain 1: B1 chain 1 with Q31S, G52S, P53S, S54D, D99G, S101P, Y109V
chain 2: B1 chain 2
- Kd: 293 nM

B3: unnamed (protein)
chain 1: B1 chain 1 with Q31S, G52S, P53A, S54D, D99G, S101P, Y109V
chain 2: B1 chain 2
- Kd: 245 nM

B4: unnamed (protein)
chain 1: B1 chain 1 with Q31S, G33A, G52S, P53S, S54D, T97A, D99G, S101P, A102S, Y109V
chain 2: B1 chain 2
- Kd: 505 nM

B5: unnamed (protein)
chain 1: B1 chain 1 with Q31S, G33A, G52S, P53G, S54D, D99G, S101P
chain 2: B1 chain 2
- Kd: 857 nM

B6: unnamed (protein)
chain 1: B1 chain 1 with Q31S, G33A, G52S, P53Y, S54D, T97A, D99G, S101P, Y109V
chain 2: B1 chain 2
- Kd: 702 nM

B7: unnamed (protein)
chain 1: B1 chain 1 with Q31S, G33A, G52S, P53S, S54D, S101P, A102Y, Y109V
chain 2: B1 chain 2
- Kd: 693 nM

B8: unnamed (protein)
chain 1: B1 chain 1 with Q31S, G33A, G52S, P53A, S54D, D99G, S101P
chain 2: B1 chain 2
- Kd: 707 nM

B9: unnamed (protein)
chain 1: B1 chain 1 with Q31S, G52S, P53S, S54D, S101P, Y109V
chain 2: B1 chain 2
- Kd: 58 nM

B10: unnamed (protein)
chain 1: B1 chain 1 with D99G, S101P, A102Y, A106G, F107M, Y109V
chain 2: B1 chain 2
- Kd: 102 nM

More lines, now with the values ahead:

- Kd: 51.1 nM
B11: unnamed (protein)
chain 1: B1 chain 1 with Q31S, G33A, G52S, P53S, S54D, T97A, S101P, A102S, Y109V
chain 2: B1 chain 2

- Kd: 635 nM
B12: unnamed (protein)
chain 1: B1 chain 1 with Q31S, G33A, G52S, P53S, S54D, T97A, D99G, S101P, Y109V
chain 2: B1 chain 2

- Kd: 375 nM
B13: unnamed (protein)
chain 1: B1 chain 1 with Q31S, G33A, G52S, P53S, S54D, D99G, S101P, A102Y, Y109V
chain 2: B1 chain 2

- Kd: 2040 nM
B14: unnamed (protein)
chain 1: B1 chain 1 with T97A, D99R, S101R, A102Y, Y103G, Y104L, F107M
chain 2: B1 chain 2

- Kd: 310 nM
B15: unnamed (protein)
chain 1: B1 chain 1 with Q31S, G33A, G52S, P53S, S54D, T97A, D99G, S101P, A106G, Y109V
chain 2: B1 chain 2

- Kd: 692 nM
B16: unnamed (protein)
chain 1: B1 chain 1 with Q31S, G33A, G52S, P53S, S54D, S101P, A102W, Y109V
chain 2: B1 chain 2

- Kd: 485 nM
B17: unnamed (protein)
chain 1: B1 chain 1 with Q31S, G33A, G52S, P53A, S54D, S101P, A106G, Y109V
chain 2: B1 chain 2

- Kd: 546 nM
B18: unnamed (protein)
chain 1: B1 chain 1 with Q31S, G33A, G52S, P53G, S54D, D99G, S101P, A106G, Y109V
chain 2: B1 chain 2

- Kd: 80.9 nM
B19: unnamed (protein)
chain 1: B1 chain 1 with Q31S, G52S, P53S, S54D, S101P, A102S, Y109V
chain 2: B1 chain 2
